Experimental data from the supplement of paper PMC10567573.

B1: TFE3 (parent)
chain: ELPNIKREISETEAKALLKERQKK

Variants of: B1
Test: protein stability index of a GFP-peptide fusion (GPS, HEK-293T) (PSI 1-6); higher = more stable
Settings: c terminus: a fixed tail appended
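Also: lentivirally expressed fusions sorted by FACS into six bins by GFP to DsRed ratio, PSI derived from sequencing read proportions per bin multiplied by bin number.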

Protein stability index, by site and new letter:
A14: T 2, Y 2.49, C 2.48, M 2.05, G 3, L 2.54, N 2.64, P 3.06, S 2.22, H 3.14, E 3.05, F 2.83, I 2.46, R 2.51, Q 2.39, D 2.17, K 2.75
A16: C 2.2, V 2.79, G 3.47, Y 2.37, K 3.91, T 2.96, I 3.16, S 2.87, R 3.68, D 4.48, Q 4.6, W 2.57, M 2.63, H 4.11
S10: K 3, E 2.15, I 3.13, W 2.9, L 2.57, F 2.65, A 2.23, N 3, T 2.59, D 2.53, P 4.98, C 3.2, V 3.62, R 2.91, Q 2.68
I9: F 4.51, Y 4.34, R 3.88, K 4.95, Q 4.83, A 4.71, T 4.49, E 5.1, M 2.25, G 4.67, N 3.19, P 5.1, V 3.64, S 4.68
P3: G 3.5, R 3.75, F 2.84, H 2.57, C 2.43, E 3.17, T 3.57, A 2.6, W 2.43, Q 2.98, I 1.34, D 2.89, M 1.93, S 3.44, L 2.02
E1: D 2.65, W 3.01, N 2.75, L 2.29, M 2.39, T 3.6, C 3.12, S 2.87, H 2.66, A 3.19, G 4.65, K 3.13, P 4.81, I 3.59
K24: V 2.96, W 2.44, F 2.03, E 3.37, C 2.71, A 2.46, L 2.53, G 2.76, T 2.79, N 3.05, D 2.91, M 2.19, R 2.15, Q 2.84, Y 2.69, I 2.69
K19: M 2.89, P 2.29, Q 2.83, T 2.42, R 2.32, C 2.07, E 2.62, H 2.36, V 2.8, S 2.53, A 2.7
R7: F 2.44, P 4.86, G 2.2, C 2.97, V 2.46, D 2.95, Y 2.81, M 2.63, I 3.2, T 3.51, S 2.49, A 2.55, Q 2.4, L 2.68, H 3.27
E11: N 2.99, K 3.48, A 2.89, Y 3.16, M 2.78, V 2.43, I 3.05, D 2.45, C 2.87, G 3.45, Q 3.29, L 2.79
E8: K 4.06, S 3.69, T 3.46, Q 3.34, A 2.49, P 4.31, V 3.43, I 3.39, M 3.32, L 3.6, Y 3.68, F 3.52
K23: D 2.56, N 2.85, H 2.44, P 2.35, M 2.4, T 2.86, W 2.36, F 2.36, A 2.19, Y 2.1, G 2.42, Q 2.45, E 2.64, R 2.78, V 2.61, C 3.09, L 2.91
L18: V 2.2, S 2.77, P 2.77, D 2.07, R 2.32, G 1.87, H 2.56, T 2.65, C 2.6, E 2.5, W 2.37, K 3.19, Q 2.96, M 2.05
L17: H 2.12, R 3.27, G 2.76, E 2.25, M 2.71, S 2.32, C 3.09, I 2.98, V 3.14, K 3.17, A 2.74
T12: L 4, W 3.31, H 4.58, R 4.08, M 4.26, C 2.51, G 4.73, V 4.04, D 4.56, P 4.73, N 4.46, Y 4.15, I 4.13
N4: V 3.86, K 2.78, E 3.9, S 3.23, R 2.34, T 3.33, L 3.34, M 2.83, I 3.85, G 3.62
E13: L 3.06, A 4.83, T 4.34, G 4.58, D 4.12, R 3.43, H 4.65, F 3.26, M 3.71, C 2.74, P 3.92, W 2.56, S 4.13, Q 4.34
I5: H 4.61, Y 4.3, Q 4.38, T 4.7, V 3.94, A 4.81, W 3.93, R 4.4, L 3.34, F 4.05, D 5.33, G 3.46, P 4.91, N 4.22, E 5.37
K6: Q 2.45, N 2.81, F 2.79, M 2.75, V 2.24, A 2.95, T 3.05, E 4.11, W 2.01, Y 2.65, D 4.36, I 2.04
K15: R 3.15, W 2.42, I 2.21, H 2.94, N 2.22, D 1.98, G 2.34, S 2.75, Y 2.31, F 2.54, V 2.02, P 4.59, Q 2.46, T 2.3, C 3.29, A 2.5
Q22: A 2.73, G 2.77, F 2.34, Y 1.8, H 2.73, L 2.24, S 2.73, K 2.35, C 2.71, V 2.83, N 2.5, I 2.52, T 2.52, M 2.75
L2: W 3.96, I 2.19, R 3.94, A 4.75, H 4.51, V 1.95, D 5.49, N 5.12, E 5.33, T 4.71, K 5.08, S 5.39, F 4.29, Q 3.88, C 3.5, P 5.74
R21: T 2.82, A 3.07, K 2.5, G 2.28, M 2.25, C 2.43, N 2.91, W 2.15, D 2.88, S 1.81, Y 2.72, E 2.74, P 2.32, L 2.97
E20: V 2.52, C 2.07, G 2.78, I 2.29, D 2.79, R 3.29, Y 2.5, K 2.83, Q 2.77, T 3.07, A 2.99, M 2.59, S 2.67
